Values of other authors, collected in publication PMC12634839.

Molecular target: FAM19A5 (Homo sapiens) (UniProt Q7Z5A7)
Test: SPR

Sequence of UniProt Q7Z5A7 (Q7Z5A7 44-132): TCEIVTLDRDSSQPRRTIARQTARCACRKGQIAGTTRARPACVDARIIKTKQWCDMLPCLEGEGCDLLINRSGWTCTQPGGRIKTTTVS

LRRC4B 453-576 (from UniProt Q9NT99)
Kd: 0.032 nM
